We go through two molecules from patent publication US20250276092A1 (Regeneron, published 2025).

The target of experiment [1] is T1, human CD40 expressed on cells (human, UniProt P25942 21-277). As to the kind of experiment: cell-based or functional assay.
For experiment [2], the target named is T1, human CD40 expressed on cells. As to the kind of experiment: cell-based or functional assay. This is another data set of the same source.
In experiment [3] the target is T2, human CD40 extracellular domain expressed with a C-terminal myc-myc-hexahistidine tag (human).
T2 construct: also called hCD40-MMH; hCD40-mmH
As to the kind of experiment: SPR 25C, captured mAb. The protocol: (§1) The equilibrium dissociation constants (KD) for anti-CD40 bivalent and bispecific monoclonal antibodies (mAbs) were determined using a real-time surface plasmon resonance (SPR)-based Biacore 4000 biosensor. All binding studies were performed in 10 mM HEPES, 150 mM NaCl, 3 mM EDTA, and 0.05% v/v surfactant Tween-20, pH 7.4 (HBS-ET) running buffer at 25° C. and 37° C. The Biacore CM5 sensor surface was first derivatized by amine coupling with a monoclonal mouse anti-human Fc antibody (REGN2567) to capture anti-CD40 bivalent parental and anti-CD40×CD40 bispecific antibodies. Different concentrations of CD40 reagents, human CD40 extracellular domain expressed with a C-terminal myc-myc-hexahistidine tag (“hCD40-MMH”; REGN3094; SEQ ID NO: 53), monkey CD40 extracellular domain expressed with a C-terminal myc-myc-hexahistidine tag (“mfCD40-MMH”; REGN3097; SEQ ID NO: 54), and mouse CD40 extracellular domain expressed with a C-terminal myc-myc-hexahistidine tag (“mCD40-MMH”; REGN3098; SEQ ID NO: 55), at concentrations ranging from 3.7 nM to 100 nM or 3.3 nM to 90 nM in a series of 3-fold dilutions prepared in HBS-ET running buffer were injected at a flow rate of […] for 4 minutes or […] for 5 minutes. The dissociation of different CD40 reagents bound to anti-CD40 bivalent parental and anti-CD40×CD40 bispecific antibodies was monitored for 10 minutes in HBS-ET running buffer. At the end of each cycle, the anti-CD40 bivalent parental and anti-CD40×CD40 bispecific antibodies capture surface was regenerated using a 12 sec injection of 20 mM H₃PO₄.
(§2) The association rate (ka) and dissociation rate (kd) were determined by fitting the real-time binding sensorgrams to a 1:1 binding model with mass transport limitation using Scrubber 2.0c curve-fitting software. Binding dissociation equilibrium constant (KD) and dissociative half-life (t½) were calculated from the kinetic rates as: KD (M)=kd/kₐ, and t_{1/2} (min)=[ln(2)/(60*kd)].

Experiment [4] addresses T1, human CD40 expressed on cells. As to the kind of experiment: cell-based or functional assay. This is another data set of the same source.
Experiment [5] has the same target. The experiment can be described thus: cell-based or functional assay. The source holds these as a separate data set.
Experiment [6] deals with T2, human CD40 extracellular domain …. As to the kind of experiment: ELISA, blocks 40 nM hCD40-mmH binding to coated 9His-hCD40L. The protocol:
In the blocking assay, 9His-hCD40L was passively absorbed at a concentration of 5 μg/mL in PBS on a 96-well microtiter plate overnight at 4° C. […] In a separate 96-well microtiter plate, a fixed amount of 40 nM hCD40-mmH was pre-mixed with one of the following antibodies, at concentrations ranging from 977 pM to 1 μM in PBS+0.5% BSA: (1) anti-CD40×CD40 bispecific antibodies (REGN16431, REGN16432, REGN16634, and REGN16335); (2) parental anti-CD40 mAbs (bivalent antibodies comprising 2 fragment antigen-binding [Fab] arms identical to one of anti-CD40 Fab of anti-CD40×CD40 antibodies); (3) anti-CD40×Irrelevant antibodies (bivalent antibodies that incorporate one Fab arm identical to one of anti-CD40 Fab of anti-CD40×CD40 antibodies and another Fab arm specific to an irrelevant antigen); and (4) human IgG4 with Fc mutation isotype control antibodies (REGN7540 and REGN4513). The fixed concentration of hCD40-mmH was selected to be near the concentration (EC₅₀ value) that generated 50% of the maximal binding to the plate-adhered 9His-hCD40L. After one-hour incubation, the antibody-antigen complexes were transferred to the microtiter plate coated with 9His-hCD40L. After one hour incubation at room temperature, the plates were washed, and plate-bound hCD40-mmH protein was detected with horseradish peroxidase (HRP) conjugated goat anti-c-Myc antibody. The plates were then developed using TMB substrate solution (BD Biosciences) according to the manufacturer's recommended procedure and the absorbance at 450 nm (OD₄₅₀) was measured on a SpectraMax i3× plate reader.
Binding data were analyzed using a sigmoidal (four-parameter logistic) dose-response model with GraphPad Prism™ software. […] The percent blocking of tested antibodies at the highest tested concentration ([…]) was calculated based on the formula shown below: […]
Background: ELISA stands for enzyme-linked immunosorbent assay.

The target of experiment [7] is T1, human CD40 expressed on cells. The experiment can be described thus: cell-based or functional assay. This is another data set of the same source.
For experiment [8] the target is unchanged. The experiment can be described thus: cell-based or functional assay. This is another data set of the same source.
In experiment [9] the target is T2, human CD40 extracellular domain …. The experiment can be described thus: SPR 37C, captured mAb. The protocol:
as §1, §2

The target of experiment [10] is T1, human CD40 expressed on cells. The experiment can be described thus: cell-based or functional assay. The source holds these as a separate data set.
Experiment [11] shares this target. As to the kind of experiment: cell-based or functional assay. This is another data set of the same source.
Experiment [12] shares this target. The experiment can be described thus: cell-based or functional assay. This is another data set of the same source.

T1 sequence (P25942 21-277): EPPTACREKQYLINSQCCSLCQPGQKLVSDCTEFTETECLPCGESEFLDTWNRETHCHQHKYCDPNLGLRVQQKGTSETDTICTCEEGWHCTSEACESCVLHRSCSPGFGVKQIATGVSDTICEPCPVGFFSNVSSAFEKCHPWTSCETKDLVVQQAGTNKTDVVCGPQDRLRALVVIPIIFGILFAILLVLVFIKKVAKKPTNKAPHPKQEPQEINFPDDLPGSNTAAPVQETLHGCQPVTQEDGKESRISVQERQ
T2 sequence (chain, as listed by the source limits assumed): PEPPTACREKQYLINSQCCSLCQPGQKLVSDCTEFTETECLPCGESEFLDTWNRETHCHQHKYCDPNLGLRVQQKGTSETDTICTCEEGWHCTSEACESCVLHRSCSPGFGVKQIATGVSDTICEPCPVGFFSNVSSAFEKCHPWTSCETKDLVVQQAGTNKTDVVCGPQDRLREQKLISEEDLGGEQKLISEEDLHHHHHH

B1: REGN16431 (bispecific antibody, human IgG4 S228P, kappa)
heavy 1: QLQLQESGPGLVRPSETLSLTCSVSGASMNTNNYYWGWIRQPPGKGLEWIGSGYYNGNTYYNPSLKSRVTISVDTSKNQFSLKLNSVTAADTAVYYCARQTPPRIIGSPNIWGQGTMVTVSSASTKGPSVFPLAPCSRSTSESTAALGCLVKDYFPEPVTVSWNSGALTSGVHTFPAVLQSSGLYSLSSVVTVPSSSLGTKTYTCNVDHKPSNTKVDKRVESKYGPPCPPCPAPPVAGPSVFLFPPKPKDTLMISRTPEVTCVVVDVSQEDPEVQFNWYVDGVEVHNAKTKPREEQFNSTYRVVSVLTVLHQDWLNGKEYKCKVSNKGLPSSIEKTISKAKGQPREPQVYTLPPSQEEMTKNQVSLTCLVKGFYPSDIAVEWESNGQPENNYKTTPPVLDSDGSFFLYSRLTVDKSRWQEGNVFSCSVMHEALHNHYTQKSLSLSLGK
heavy 2: EVQLVESGGGLVQPGGSLRLSCAASGFTFGSYGMAWVRQAPGKGLEWVSAISGSGDYTNYADSVKRRFTISRDNSKNTLYLQMSSLRAEDTAVYYCAKEKTGTTGYLYSGMDVWGQGTTVTVSSASTKGPSVFPLAPCSRSTSESTAALGCLVKDYFPEPVTVSWNSGALTSGVHTFPAVLQSSGLYSLSSVVTVPSSSLGTKTYTCNVDHKPSNTKVDKRVESKYGPPCPPCPAPPVAGPSVFLFPPKPKDTLMISRTPEVTCVVVDVSQEDPEVQFNWYVDGVEVHNAKTKPREEQFNSTYRVVSVLTVLHQDWLNGKEYKCKVSNKGLPSSIEKTISKAKGQPREPQVYTLPPSQEEMTKNQVSLTCLVKGFYPSDIAVEWESNGQPENNYKTTPPVLDSDGSFFLYSRLTVDKSRWQEGNVFSCSVMHEALHNRFTQKSLSLSPGK
light: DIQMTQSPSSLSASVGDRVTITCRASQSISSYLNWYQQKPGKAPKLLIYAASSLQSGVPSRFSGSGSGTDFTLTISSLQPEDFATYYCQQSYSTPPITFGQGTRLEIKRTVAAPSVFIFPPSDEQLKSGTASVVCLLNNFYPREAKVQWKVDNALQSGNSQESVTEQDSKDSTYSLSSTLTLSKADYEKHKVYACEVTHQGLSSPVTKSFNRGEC
Turning to B1, in experiment [1], the “IC50, NFkB-luc Ramos, 500 pM hCD40L” value came to 8.54e-11 M; the “Max % activation, NFkB-luc Ramos, no ligand” value is 6%; the “Max % inhibition, NFkB-luc Ramos, 500 pM hCD40L” value came to 90%. For the same molecule, in [2], the “% max blockade relative to no mAb, IL-10, B cells, donor 1” value is 80.7%; the “% max blockade relative to no mAb, IL-10, B cells, donor 2” value was determined as 86.9%; the “% max blockade relative to no mAb, IL-10, B cells, donor 3” value amounted to 89.3%. Also, the “100 nM Ag Bound (RU)” value in experiment [3] turned out to be 61.2 RU. In [4], the “IC50, NFkB-luc Raji, 900 pM hCD40L” value is 1.07e-10 M; the “Max % activation, NFkB-luc Raji, no ligand” value was determined as 13%; the “Max % inhibition, NFkB-luc Raji, 900 pM hCD40L” value turned out to be 82%. In [5], the “% max blockade relative to no mAb, IL-6, B cells, donor 1” value was 84%; the “% max blockade relative to no mAb, IL-6, B cells, donor 2” value amounted to 92.7%; the “% max blockade relative to no mAb, IL-6, B cells, donor 3” value came out at 92.7%. Also, the “% Blocking at highest mAb concentration” value in [6] was 93%. Moreover, in [7], the “IC50, NFkB-luc THP-1, 10 nM hCD40L” value was 0.287 nM; the “Max % activation, NFkB-luc THP-1, no ligand” value came out at 2%; the “Max % inhibition, NFkB-luc THP-1, 10 nM hCD40L” value amounted to 98%. Further, in experiment [8], the “% max blockade relative to no mAb, TNFa, B cells, donor 1” value stood at 44.7%; the “% max blockade relative to no mAb, TNFa, B cells, donor 2” value came out at 74.1%; the “% max blockade relative to no mAb, TNFa, B cells, donor 3” value stood at 70.4%. The “100 nM Ag Bound (RU)” value in [9] was 61.2 RU.

B2: REGN16335 (bispecific antibody, human IgG4 S228P, kappa)
heavy 1: EVQLVESGGGLVQPGGSLRLSCAASGFTFSSYAMNWVRQAPGKGLEWVSIISGTIGKTYYADSVKGRFTISRDNSKNTLYLQMNSLRGEDTAVYYCAKDTERDITGSPFDYWGQGTLVTVSSASTKGPSVFPLAPCSRSTSESTAALGCLVKDYFPEPVTVSWNSGALTSGVHTFPAVLQSSGLYSLSSVVTVPSSSLGTKTYTCNVDHKPSNTKVDKRVESKYGPPCPPCPAPGGGGPSVFLFPPKPKDTLMISRTPEVTCVVVDVSQEDPEVQFNWYVDGVEVHNAKTKPREEQFNSTYRVVSVLTVLHQDWLNGKEYKCKVSNKGLPSSIEKTISKAKGQPREPQVYTLPPSQEEMTKNQVSLTCLVKGFYPSDIAVEWESNGQPENNYKTTPPVLDSDGSFFLYSRLTVDKSRWQEGNVFSCSVMHEALHNHYTQKSLSLSLGK
heavy 2: EVQLVESGGGLVQPGGSLRLSCAASGFTFGSYGMAWVRQAPGKGLEWVSAISGSGDYTNYADSVKRRFTISRDNSKNTLYLQMSSLRAEDTAVYYCAKEKTGTTGYLYSGMDVWGQGTTVTVSSASTKGPSVFPLAPCSRSTSESTAALGCLVKDYFPEPVTVSWNSGALTSGVHTFPAVLQSSGLYSLSSVVTVPSSSLGTKTYTCNVDHKPSNTKVDKRVESKYGPPCPPCPAPGGGGPSVFLFPPKPKDTLMISRTPEVTCVVVDVSQEDPEVQFNWYVDGVEVHNAKTKPREEQFNSTYRVVSVLTVLHQDWLNGKEYKCKVSNKGLPSSIEKTISKAKGQPREPQVYTLPPSQEEMTKNQVSLTCLVKGFYPSDIAVEWESNGQPENNYKTTPPVLDSDGSFFLYSRLTVDKSRWQEGNVFSCSVMHEALHNRFTQKSLSLSPGK
light: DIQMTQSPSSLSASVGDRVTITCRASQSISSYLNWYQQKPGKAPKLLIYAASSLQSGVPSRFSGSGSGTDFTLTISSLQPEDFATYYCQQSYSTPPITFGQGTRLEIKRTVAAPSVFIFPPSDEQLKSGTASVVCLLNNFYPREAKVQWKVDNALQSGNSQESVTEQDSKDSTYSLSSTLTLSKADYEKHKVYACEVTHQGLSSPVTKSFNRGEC
As for B2, in [1], the “IC50, NFkB-luc Ramos, 500 pM hCD40L” value is 3.86e-11 M; the “Max % activation, NFkB-luc Ramos, no ligand” value was found to be 5%; the “Max % inhibition, NFkB-luc Ramos, 500 pM hCD40L” value turned out to be 93%. In experiment [2], the “% max blockade relative to no mAb, IL-10, B cells, donor 1” value was 78.5%; the “% max blockade relative to no mAb, IL-10, B cells, donor 2” value was determined as 93.6%; the “% max blockade relative to no mAb, IL-10, B cells, donor 3” value stood at 89.8%. Moreover, in [4], the “IC50, NFkB-luc Raji, 900 pM hCD40L” value turned out to be 4.94e-11 M; the “Max % activation, NFkB-luc Raji, no ligand” value is 9%; the “Max % inhibition, NFkB-luc Raji, 900 pM hCD40L” value was 102%. In experiment [10], the “% max blockade relative to no mAb, IL-6, assay #2, donor 1” value came to 88.4% and the “% max blockade relative to no mAb, IL-6, assay #2, donor 2” value was found to be 87%. Moreover, in experiment [11], the “% max blockade relative to no mAb, TNFa, assay #2, donor 1” value is 62.4% and the “% max blockade relative to no mAb, TNFa, assay #2, donor 2” value worked out at 52.5%. In experiment [5], the “% max blockade relative to no mAb, IL-6, B cells, donor 1” value amounted to 83.2%; the “% max blockade relative to no mAb, IL-6, B cells, donor 2” value is 91.4%; the “% max blockade relative to no mAb, IL-6, B cells, donor 3” value was found to be 91.4%. For the same molecule, in experiment [12], the “% max blockade relative to no mAb, IL-10, assay #2, donor 1” value stood at 88.5% and the “% max blockade relative to no mAb, IL-10, assay #2, donor 2” value was determined as 87.8%. Further, the “% Blocking at highest mAb concentration” value in experiment [6] turned out to be 96%. Moreover, in [7], the “IC50, NFkB-luc THP-1, 10 nM hCD40L” value was 0.221 nM; the “Max % activation, NFkB-luc THP-1, no ligand” value is 3%; the “Max % inhibition, NFkB-luc THP-1, 10 nM hCD40L” value is 98%. Moreover, in [8], the “% max blockade relative to no mAb, TNFa, B cells, donor 1” value is 45%; the “% max blockade relative to no mAb, TNFa, B cells, donor 2” value was 64.7%; the “% max blockade relative to no mAb, TNFa, B cells, donor 3” value came to 61.6%.
